The values that follow come from US20050037947A1, “INHIBITION OF DRUG BINDING TO SERUM ALBUMIN” (priority 2003, published 2005).

The experiment deals with human serum albumin (Albuminar, Aventis) (human), P02768. The experiment in a line: SPR (BIACORE 3000), serum albumin immobilised on CM5 chip, analyte injected; Req divided by molecular weight; reference GnRH-Fc. Background: Surface plasmon resonance follows binding to a sensor surface in real time, without labels.

B1: GnRH peptide (gonadotropin releasing hormone), P01148 24-33 (peptide, UniProt P01148 24-33, looked up)
peptide: QHWSYGLRPG
modifications: not checked
In turn, B1 came in with a fold more bound (Req/MW) than GnRH-Fc greater than 5 times.
